Data on 167 variants can be found in the Human Domainome abundance scans (Beltran et al. 2025).

To fix the notation:
B1: Ras GTPase-activating protein 1, residues 281 to 341; numbered along this chain, P20936 (parent)
chain: RRRVRAILPYTKVPDTDEISFLKGDMFIVHNELEDGWMWVTNLRTDEQGLIVEDLVEEVGR

± gives the uncertainty stated by the source.

This data set covers variants of B1. The experiment in a line: abundance fitness (aPCA) (normalised: wild type 0, dead -1); higher = more abundant; growth selection in yeast, the domain comes from the species named. The conditions noted are these: Homo sapiens.
With F27D, the abundance fitness is -0.748 ± 0.051.
The figure for F27W is -0.957 ± 0.1; for F27P it is -0.74 ± 0.081.
The figure for F27G is -0.82 ± 0.04; for K12M it is -0.188 ± 0.053.
The figure for K12F is -0.985 ± 0.052.
Consider K12D, for which the abundance fitness is -0.806 ± 0.056.
The figure for K12P is -0.102 ± 0.037.
On to K12S, for which the abundance fitness was -0.077 ± 0.027.
The value for K12R was -0.052 ± 0.033; that for F21R was -0.855 ± 0.031; that for F21N was -0.83 ± 0.03.
The figure for F21D is -0.862 ± 0.03; for F21W it is -0.92 ± 0.068.
The value for F21Q was -0.74 ± 0.068; that for Y10G was -0.84 ± 0.091; that for Y10A was -0.588 ± 0.088.
Regarding Y10D, the abundance fitness was -1.04 ± 0.13.
The value for Y10V was -0.728 ± 0.06; that for Y10H was 0.084 ± 0.045.
The value for Y10E was -0.838 ± 0.46.
The figure for V56I is -0.031 ± 0.028; for V56L it is -0.711 ± 0.038; for V56T it is -0.013 ± 0.032.
For the variant V56P, the abundance fitness is -0.778 ± 0.054.
The value for V13N was 0.058 ± 0.031.
For V13W, the abundance fitness is -0.152 ± 0.058.
On to V13D, for which the abundance fitness was -0.047 ± 0.033.
Take V13S: the abundance fitness was -0.015 ± 0.025.
For the variant V13F, the abundance fitness was -0.185 ± 0.027.
Take V13T: the abundance fitness came out at 0.084 ± 0.03.
The figure for V13K is 0.02 ± 0.072; for V13P it is -0.34 ± 0.042; for G60F it is -0.211 ± 0.07.
On to G60N, for which the abundance fitness is -0.006 ± 0.065.
The figure for G60M is -0.289 ± 0.12; for G60C it is -0.081 ± 0.067.
In the case of L43Y, the abundance fitness was -0.35 ± 0.033.
For the variant L43M, the abundance fitness is 0.005 ± 0.057.
The figure for L43S is -0.19 ± 0.027; for L43V it is -0.044 ± 0.029.
The value for L43N was -0.388 ± 0.036; that for L43A was -0.229 ± 0.043.
The value for L43E was -0.026 ± 0.1; that for M38L was -0.013 ± 0.031.
For M38Q, the abundance fitness is -0.548 ± 0.17.
In the case of M38W, the abundance fitness was -0.438 ± 0.065.
With M38R, the abundance fitness was -0.505 ± 0.038.
The value for E58H was -0.156 ± 0.034; that for E58K was -0.156 ± 0.063.
For the variant E58V, the abundance fitness is -0.201 ± 0.035.
The value for E58R was -0.171 ± 0.035; that for E58Y was -0.305 ± 0.031; that for I28N was -0.102 ± 0.022.
The value for I28T was -0.011 ± 0.023.
The value for I28E was 0.098 ± 0.034; that for I28K was -0.07 ± 0.033.
Turning to E32F, the abundance fitness was -0.054 ± 0.031.
As for E32A, the abundance fitness was -0.068 ± 0.029.
The value for E32M was 0.017 ± 0.053; that for E32K was 0.01 ± 0.054.
Regarding E32P, the abundance fitness was -0.35 ± 0.044.
In the case of E32S, the abundance fitness was -0.019 ± 0.026.
Consider L33W, for which the abundance fitness is -0.136 ± 0.042.
With L33I, the abundance fitness is -0.075 ± 0.028.
The figure for L33Q is 0.004 ± 0.05; for L33P it is -0.07 ± 0.039; for L33C it is -0.07 ± 0.026.
As for L33M, the abundance fitness was -0.099 ± 0.055.
The value for V4T was -0.605 ± 0.027.
For the variant V4S, the abundance fitness is -0.895 ± 0.027.
D17Q: the abundance fitness was -0.011 ± 0.061.
On to D17Y, for which the abundance fitness was -0.084 ± 0.026.
As to D17F, the abundance fitness is -0.182 ± 0.028.
As to L55Y, the abundance fitness worked out at 0.034 ± 0.03.
For L55K, the abundance fitness was found to be 0.027 ± 0.051.
The value for M26C was -0.042 ± 0.027.
The figure for M26W is -0.104 ± 0.048.
Take M26T: the abundance fitness was -0.03 ± 0.038.
The figure for M26G is -0.416 ± 0.03.
The value for M26E was 0.117 ± 0.057.
The value for M26L was -0.026 ± 0.03; that for M26A was -0.177 ± 0.033.
For M26N, the abundance fitness was -0.029 ± 0.031.
As for M26F, the abundance fitness was -0.042 ± 0.029.
The value for M26H was -0.061 ± 0.034; that for T45D was -0.762 ± 0.041; that for T45N was -0.005 ± 0.027.
The figure for T45A is -0.735 ± 0.049.
As for T45S, the abundance fitness was -0.098 ± 0.024.
The figure for T45K is -1.05 ± 0.13; for N42I it is -0.893 ± 0.061.
The figure for N42H is -0.381 ± 0.033; for N42Q it is -0.737 ± 0.1; for N42M it is -0.577 ± 0.098.
The value for E53A was -0.027 ± 0.032.
Take E53Q: the abundance fitness is -0.034 ± 0.074.
The value for E53H was -0.003 ± 0.032.
The value for E53Y was -0.121 ± 0.027.
For E53R, the abundance fitness was -0.019 ± 0.028.
As for E53G, the abundance fitness came to 0.03 ± 0.027.
As for E53F, the abundance fitness is -0.337 ± 0.03.
The figure for V52C is 0.024 ± 0.027; for V52E it is -0.123 ± 0.052.
The value for V52L was 0.041 ± 0.027; that for V52K was 0 ± 0.046; that for V52F was 0.009 ± 0.026.
Consider V52R, for which the abundance fitness turned out to be 0.043 ± 0.027.
The value for V52S was 0.013 ± 0.025.
As to V52D, the abundance fitness is -0.121 ± 0.031.
The figure for W39G is -0.67 ± 0.024; for W39Y it is -0.009 ± 0.023; for W39K it is -0.118 ± 0.037.
The figure for W39M is -0.094 ± 0.03; for T41L it is -0.357 ± 0.033.
With T41K, the abundance fitness is -0.143 ± 0.057.
Take R1P: the abundance fitness was -0.283 ± 0.13.
As for R1W, the abundance fitness was -0.315 ± 0.059.
Regarding R1I, the abundance fitness was determined as 0.072 ± 0.034.
The value for R1K was 0.058 ± 0.11.
R1C: the abundance fitness was -0.065 ± 0.031.
Consider R1T, for which the abundance fitness amounted to 0.029 ± 0.04.
The figure for V29H is -0.881 ± 0.062; for V29R it is -0.636 ± 0.045.
For V29S, the abundance fitness is -0.866 ± 0.043.
Regarding L50W, the abundance fitness is -0.07 ± 0.051.
With L50F, the abundance fitness was -0.126 ± 0.026.
The figure for L50V is -0.043 ± 0.024.
The value for L50N was -0.828 ± 0.044.
Turning to L50A, the abundance fitness was -0.002 ± 0.03.
The figure for L50E is -0.395 ± 0.079.
Take S20A: the abundance fitness is -0.669 ± 0.053.
On to S20D, for which the abundance fitness was -0.111 ± 0.029.
The value for S20W was -0.511 ± 0.1.
For S20H, the abundance fitness was -0.977 ± 0.08.
Turning to S20E, the abundance fitness is -0.641 ± 0.08.
With S20P, the abundance fitness is -0.639 ± 0.077.
The value for D15L was -0.246 ± 0.033; that for D15E was 0.05 ± 0.05.
Consider D15T, for which the abundance fitness is -0.213 ± 0.048.
The figure for D15M is -0.269 ± 0.077; for D15A it is -0.129 ± 0.029; for D15F it is -0.241 ± 0.027.
On to D15P, for which the abundance fitness is -0.819 ± 0.071.
The figure for D15Y is -0.168 ± 0.028.
Turning to T16I, the abundance fitness is -0.879 ± 0.059.
Consider T16Y, for which the abundance fitness was -0.942 ± 0.06.
The value for T16P was -0.911 ± 0.074; that for T16G was -0.439 ± 0.027; that for D35S was -0.103 ± 0.026.
On to D35W, for which the abundance fitness was -0.337 ± 0.054.
The figure for D35H is -0.038 ± 0.03.
The figure for D35A is -0.024 ± 0.039; for P14S it is -0.085 ± 0.025; for P14M it is -0.045 ± 0.063.
The value for P14G was -0.089 ± 0.025.
For the variant P14N, the abundance fitness is -0.075 ± 0.03.
P14V: the abundance fitness was -0.101 ± 0.027.
The figure for D46G is 0.038 ± 0.025; for D46P it is -0.864 ± 0.072; for D46R it is 0.019 ± 0.028.
The value for D46I was -0.085 ± 0.026.
The value for D46K was 0.085 ± 0.042; that for D46E was 0.066 ± 0.056.
D46Q: the abundance fitness was -0.11 ± 0.056.
For the variant V40S, the abundance fitness is -0.826 ± 0.036.
The figure for V40E is -1.13 ± 0.24.
